Measurements taken from PMC4347646 (The Journal of Cell Biology, 2015).

Biological target: T1, Rab13 Q67L (in the Rab13 biosensor) (human, UniProt P51153 1-203, Q67L)
T1 sequence: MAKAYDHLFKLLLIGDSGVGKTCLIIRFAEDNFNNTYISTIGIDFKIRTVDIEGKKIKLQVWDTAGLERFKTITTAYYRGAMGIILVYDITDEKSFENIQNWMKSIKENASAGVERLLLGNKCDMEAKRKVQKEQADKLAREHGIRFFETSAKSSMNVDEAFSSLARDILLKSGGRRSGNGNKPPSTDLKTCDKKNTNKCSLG
Assay: FRET or BRET

B1: RBD of MICAL-L2 (in the Rab13 biosensor) (domain or fragment)
chain: not shown
  FRET/mCer ratio, higher than in the Rab13 T22N biosensor: 53%
